The supplement of paper PMC10567573
± gives the standard deviation.

Test: protein stability index of a GFP-peptide fusion (GPS, HEK-293T) (PSI 1-6); higher = more stable
[1] = treatment: DMSO, c terminus: a fixed tail appended
[2] = treatment: MLN4924 1 uM, 8 h, c terminus: a fixed tail appended
[3] = treatment: DMSO, c terminus: native
[4] = treatment: MLN4924 1 uM, 8 h, c terminus: native
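Also: 24-mer peptide tiles fused after GFP, lentivirally expressed, FACS-sorted into six equal bins by GFP/DsRed ratio, decoded by Illumina sequencing, PSI is the read-weighted mean bin number.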

Sequence	protein stability index [1]	protein stability index [2]	protein stability index [3]	protein stability index [4]
AEAAPELDLFAMKPPETSVPVVTP [SNAP91]	4.89 ± 0.15	4.98 ± 0.1		
TALLSSGFSLEDPQTHSNRIYRMI [HSP90AB1]	2.6 ± 0.36	2.56 ± 0.26		
ILPKQSRKSMLDAGPDSWGSDAEQ [LCOR]	4.51 ± 0.15	4.55 ± 0.21		
LHVWQITWAMRQRGTHAVVGVATA [SPSB1]	2.58 ± 0.31	2.51 ± 0.64		
ACFLVRGLLLRGAVDGILHMFTPK [SLC6A17]	2.39 ± 0.73	2.83 ± 1.2		
AEQEPTRKLFEVESVTHHDYRMEL [SPAG8]	4.16 ± 0.16	4.33 ± 0.18		
NIMGIENICELAARMLFSAVEWAR [NR2F2]	3.04 ± 0.18	2.79 ± 0.25		
KSNFRVQLFEDPTVDKEVEIRKKV [MNAT1]	4.65 ± 0.33	4.69 ± 0.38		
VEINDLDPEVFKEMMRFIYTGRAP [SPOPL]	2.36 ± 0.33	2.05 ± 0.28		
IKVTSATSVNLGILTADLYSLFVG [SLC35F2]	3.07 ± 0.36	2.92 ± 0.42		
LYSQLLQAYKWSNKLQYHAGLASG [MED27]	3.28 ± 0.55	2.67 ± 0.71		
GDVLLDETLKHIKATEPTETVQTW [GOLPH3L]	4.41 ± 0.27	4.45 ± 0.26		
FSFSMKGHEKTAKSKTRSLLKRME [DLC1]	2.84 ± 0.24	3.06 ± 0.23		
KPYACDECAKAFSRSAILIQHRRT [ZNF396]	2.12 ± 0.11	2.37 ± 0.19		
VWFGGREHVLMFAKLALYPCASLL [TMEM175]	2.77 ± 0.26	3.18 ± 0.27		
PIFMRKDTKMSFQWRIRNLPYPKD [DPCD]	2.27 ± 0.27	2.22 ± 0.069		
CGINANDVKKLEEAGFHTVEAVAY [RAD51]	2.58 ± 0.25	2.47 ± 0.22		
PYKKPYMETSPSEEDSFYRSSYPQ [TBX5]	3.91 ± 0.47	3.65 ± 0.41		
GMSLAKELIFSARVLDGKEAKAVG [AUH]	3.45 ± 0.13	3.48 ± 0.17		
RMNDLHYLNLDTWEWNELIPQGIC [KLHDC2]	2.3 ± 0.58	2.31 ± 0.24		
ALSFTLLGSAPLDQEPLLSIDLGT [NEK8]	2.29 ± 0.36	2.44 ± 0.23		
VSGDTSKLMKILQPQDVDLALDSG [RIPK4]	4.57 ± 0.16	4.68 ± 0.32		
QTQTVAAQAQALAAQAAAAAHAAQ [PI4K2A]	4.33 ± 0.22	4.42 ± 0.19		

Sequence	protein stability index [1]	protein stability index [2]	protein stability index [3]	protein stability index [4]
KCILKTPGKINCLRNCKTYQARKP [RHOBTB3]	2.98 ± 0.17	3.03 ± 0.26		
EQELKTVTYSLLKRLKERSLDTLL [SMAD6]	2.35 ± 0.34	2.22 ± 0.31		
GVITTTPTPPGQYFYPRGGGSGGG [JUNB]	4.14 ± 0.16	4.26 ± 0.095		
PLVALDTDSDDDFDMSRYSSSGYS [FAM219A]	4.59 ± 0.52	4.76 ± 0.38		
MESKEKRAVNSLSMENANQENEEK [BEX1]	5.5 ± 0.25	5.52 ± 0.23		
GTEFMQDPDEEHLKKSSQVPRTEA [PDLIM7]	5.47 ± 0.12	5.23 ± 0.26		
FFIYGQVLYTDKTYAMGHLIQRKK [TNFSF13B]	2.4 ± 1	2.12 ± 0.53		
NRFRVEISFHFEVTNHNIRLFEDV [TRIM43]	2.73 ± 0.5	2.84 ± 0.22		
LLKYRAREPVTKAEMLGSVVGNWQ [MAGEA3]	2.39 ± 0.2	2.51 ± 0.28		
HCASPPPSSNNKELFYRVNYIGTK [NSDHL]	3.18 ± 0.17	3.31 ± 0.19		
YAVEASTMAQHAEVLVKSNNLTDR [CARM1]	4.16 ± 0.14	4.64 ± 0.34		
YATLDLNAVKYVSNIKFCSFHPLQ [PDS5B]	2.31 ± 0.68	2.18 ± 0.35		
KNRYANVIAYDHSRVLLSAIEGIP [PTPRD]	2.27 ± 0.82	2.26 ± 0.4		
LDEIPDDEDLDLIPPKSVNPTCMC [FAM219A]	5.07 ± 0.16	5.16 ± 0.31		
AAGKAEVVLGNIIKKKGWRRSSLV [KCNAB2]	2.87 ± 0.24	2.96 ± 0.31		
FGGAAAVAILAVAIGVALALRKK [BCL2L13]			2.99 ± 0.2	2.81 ± 0.21
GLSDRAKEAKEFLVQLRNMVQQIQ [TRIM9]	2.17 ± 0.56	2.2 ± 0.23		
WLDPGHTAVAQAPPAVASSSLFDL [SERTAD1]	3.33 ± 0.27	3.38 ± 0.097		
IDQWKNKIWPEIKVPRPDALDNES [RETREG3]	4.14 ± 0.24	4.3 ± 0.27		
PRGRRISVICRSLPEGMGPGESGQ [ALKBH7]	3.69 ± 0.11	3.95 ± 0.37		
KEYAAKFIKKRRLSSSRRGVSREE [DAPK3]	4.15 ± 0.15	4.379 ± 0.041		
DTRLGQVSALPLPPAMKRYLLYQ [SPSB2]			2.4 ± 0.42	2.69 ± 0.3
EVLLDHLKAHAEEKPPSGTKEKKH [PLAGL1]	4.88 ± 0.2	5.08 ± 0.14		

Sequence	protein stability index [1]	protein stability index [2]	protein stability index [3]	protein stability index [4]
FGIDVKEVDPTGHSFVLVTSLGLT [MAGEA10]	2.43 ± 0.55	2.28 ± 0.59		
SDPETKDFWLNMAALTEALQRQAE [FCHO1]	3.29 ± 0.22	3.23 ± 0.32		
RKPVEAESVEGVVRILLEHYYKEN [INTS4]	2.35 ± 0.27	2.41 ± 0.5		
ESFGQNYPEEADGTLDCISMALTC [RBBP5]	3.72 ± 0.26	3.53 ± 0.18		
PADSFESPLTLAACGGHVELAALL [ANKRD17]	2.87 ± 0.32	3.14 ± 0.28		
VQFSHHVFLNLHTLKFYCLPDNYE [USP39]	2.89 ± 0.61	3.04 ± 0.74		
FSDHTFRHYAYLRDSLSHLVPALR [INTS4]	2.27 ± 0.18	2.36 ± 0.2		
INGLRRVLDELTLARADLEMQIEN [KRT17]	3.1 ± 0.45	2.82 ± 0.38		
APVANSYRGTLKRQPAFDTFDGSL [ETS2]	3.4 ± 0.097	3.42 ± 0.13		
ENEKDRADQTVLTEDEKKELENLA [CHGB]	5.54 ± 0.19	5.75 ± 0.18		
LPSLVLARLVFVPLLLLCNIKPRR [SLC29A1]	2.79 ± 0.57	2.73 ± 0.41		
AGYEVDKIAQNLDFVNLMAYDFHG [CHIT1]	2.28 ± 0.41	2.36 ± 0.19		
DEDEVAAEEPNAAVPDEIPPLEGD [HSP90AB1]	5.49 ± 0.47	5.61 ± 0.24		
NFCHIHNCIHRDIKPENILITKQG [CDKL4]	2.53 ± 0.067	2.74 ± 0.43		
GHMDDGGYSMNFNMSSSRGPLPVK [RBMX]	4.05 ± 0.21	3.95 ± 0.24		
AKSLSFRKGELVTASKAIIEKEYQ [ADD1]	3.71 ± 0.19	3.94 ± 0.45		
RGKRGYSRGLHAWEISWPLEQRGT [SPSB2]	2.88 ± 0.087	3.03 ± 0.41		
SDTESTDLPSSTPVANSGTKPKTT [DLC1]	5.47 ± 0.26	5.49 ± 0.22		
KIDYCASSNHGCQHECVNTDDSYS [MATN2]	4.37 ± 0.18	4.5 ± 0.18		
EEYTTGMADCILVNSQFTAAVFKE [ALG2]	3.21 ± 0.27	3.26 ± 0.24		
LGAMMLLESPIDPQPLSFKEPPLL [APMAP]	2.41 ± 0.11	2.5 ± 0.45		
DTKGKPTSRTQVYKPPALKKSNSP [ZC2HC1A]	4.89 ± 0.22	4.94 ± 0.18		
KSFSMANGMNAVMMHGRSYSLASG [RAB40C]	3.08 ± 0.26	3.03 ± 0.098		

Sequence	protein stability index [1]	protein stability index [2]	protein stability index [3]	protein stability index [4]
VVPGDHLLEPEVADGGGAPPQGGC [KCNA3]	5.37 ± 0.14	5.29 ± 0.12		
MQELTEMLGFRPYRFYFYMWKFVS [SLC6A17]	2.39 ± 0.21	2.35 ± 0.35		
GLSAPARCLVRCLLRREPAERLTA [TRIB3]	2.33 ± 0.12	2.16 ± 0.32		
KGAAAAAAASGAAGGGGGGAGAGA [INTS3]	5.26 ± 0.42	5.3 ± 0.27		
SVAFAVAWFLPMPQKSLFFHHIPS [SLC19A2]	3.65 ± 0.2	3.31 ± 0.23		
FTCDLQHTETGEEVLRMCVAVKKK [VPS39]	2.84 ± 0.3	2.96 ± 0.4		
QELSEVLELLSAPELKSLAKTFHL [FAN1]	2.26 ± 0.46	2.25 ± 0.14		
EDIVFETDHILESLYRDIRDIQDE [STX11]	4.08 ± 0.12	4.31 ± 0.14		
VAGMPTAYDLSSVIASGSSVGHNN [CARM1]	3.86 ± 0.19	3.86 ± 0.23		
QGPISTKELADFIRERATIEETYS [FCHO1]	3.13 ± 0.21	3.26 ± 0.32		
GHEGSVSSCHFARDSSFLISGGFD [WDR88]	2.98 ± 0.33	3.1 ± 0.13		
GAFRKGKSFILDFMLRYLYSQKES [ATL3]	2.3 ± 0.42	2.22 ± 0.49		
VYTNLSSYSPASASSGGAGAAVGT [JUNB]	3.26 ± 0.29	3.49 ± 0.27		
TIQGVPLSSYISINSDTGVLYALR [PCDHGA10]	2.19 ± 0.096	2.14 ± 0.17		
EILTKESNVQEVRCPVTVCGDVHG [PPP2CA]	3.69 ± 0.57	3.79 ± 0.12		
QLLADEKMKQLTEETEVLAHEIER [TRIM35]	5.09 ± 0.46	5.21 ± 0.21		
NLRLQRKLQREMERREALCRQLSE [CCDC6]	3.52 ± 0.27	3.63 ± 0.43		
LRAVRQRSEFTLMAKRIGKDLSNT [STX5]	2.64 ± 0.23	2.78 ± 0.37		
QADLELDYNPPRVQLSDEMFVFQD [CBY2]	4.65 ± 0.28	4.83 ± 0.21		
IRRFLSAFHEPQVGLIQAAQQLLC [DFFB]	2.18 ± 0.38	2.14 ± 0.17		
